Measured values reported in paper PMC3743950.
One block for each substance: values may come before it.

Legend:
[1] = target: DrP5CDHR102A (Deinococcus radiodurans); experiment: SAXS + other: DLS
[2] = target: TtP5CDHK104A (Thermus thermophilus HB27); experiment: DLS
[3] = target: TtP5CDHR100A (Thermus thermophilus HB27); experiment: SAXS + other: DLS
[4] = target: TtP5CDHR100A/K104A/R111A (Thermus thermophilus HB27); experiment: DLS
[5] = target: TtP5CDHR111A (Thermus thermophilus HB27); experiment: SAXS + other: DLS
[6] = target: TtP5CDHR153A (Thermus thermophilus HB27); experiment: DLS
[7] = target: Δ1-pyrroline-5-carboxylate dehydrogenase from Bacillus halodurans (Bacillus halodurans); experiment: SAXS + other: DLS
[8] = target: Δ1-pyrroline-5-carboxylate dehydrogenase from Bacillus licheniformis (Bacillus licheniformis); experiment: DLS
[9] = target: Δ1-pyrroline-5-carboxylate dehydrogenase from Deinococcus radiodurans (Deinococcus radiodurans); experiment: SAXS + other: DLS
[10] = target: Δ1-pyrroline-5-carboxylate dehydrogenase from Thermus thermophilus (Thermus thermophilus HB27); experiment: SAXS + other: DLS

stoichiometry N [1]: 2
Substance: DrP5CDHR102A (enzyme)

stoichiometry N [3]: 2
Substance: TtP5CDHR100A (enzyme)

stoichiometry N [6]: 6
Substance: TtP5CDHR153A (enzyme)

stoichiometry N [8]: 2
Substance: Δ1-pyrroline-5-carboxylate dehydrogenase from Bacillus licheniformis (enzyme)

stoichiometry N [9]: 6
Substance: Δ1-pyrroline-5-carboxylate dehydrogenase from Deinococcus radiodurans (enzyme)

stoichiometry N [10]: 6
Substance: Δ1-pyrroline-5-carboxylate dehydrogenase from Thermus thermophilus (enzyme)

The next lines start with the substance.

Substance: TtP5CDHK104A (enzyme)
stoichiometry N [2]: 6

Substance: TtP5CDHR100A/K104A/R111A (enzyme)
stoichiometry N [4]: 2

Substance: TtP5CDHR111A (enzyme)
stoichiometry N [5]: 6

Substance: Δ1-pyrroline-5-carboxylate dehydrogenase from Bacillus halodurans (enzyme)
stoichiometry N [7]: 2
